We go through two substances from paper PMC7760923.

“And” between values parts separate entries of the source, which are not always exact repeats. Equal values may be shown once.

One data set concerns P12643. Description: dynamic light scattering (DLS); BMP-2 in MES buffer pH 5, 25 °C, 173°; association of BMP-2 dimers to aggregates. The settings on record: other: dynamic light scattering (DLS).
The target of data set [1] is E. coli-derived recombinant human bone morphogenetic protein 2 (rhBMP-2) (human) (UniProt P12643). Description: native gel or EMSA; blue native PAGE of BMP-2 solutions, Western blot with anti-BMP-2 and silver stain; oligomers of the disulfide-bridged 26 kDa dimer.

Chain of E. coli-derived recombinant human bone morphogenetic protein 2 (rhBMP-2) (P12643 283-396 limits assumed): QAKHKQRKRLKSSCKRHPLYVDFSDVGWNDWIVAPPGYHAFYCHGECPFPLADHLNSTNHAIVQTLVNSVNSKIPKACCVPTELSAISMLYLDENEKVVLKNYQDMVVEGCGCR

Take “E. coli-derived recombinant human bone morphogenetic protein 2 (rhBMP-2)”: the “percent of BMP-2 in larger aggregates (DLS)” value in the data set with P12643 is recorded as 3% was apparently in the form of larger aggregates. As for “E. coli-derived recombinant human bone morphogenetic protein 2 (rhBMP-2) (from UniProt P12643 24-396) (ligand)”, the stoichiometry N (26 kDa BMP-2 dimers) in data set [1] is 2 and 4.
